{
  "source": "paper PMC10844294",
  "about": "“A monoclonal antibody targeting a large surface of the receptor binding motif shows pan-neutralizing SARS-CoV-2 activity” (Nature Communications, 2024)",
  "biological_target": "T1, B.1.1.529 (BA.1) S1 + S2 trimer-His Recombinant Protein (SARS-CoV-2 Omicron BA.1 (B.1.1.529), strain)",
  "T1 construct": "also called Omicron BA.1 trimeric spike; BA.1 spike",
  "assay": "cryo-EM structure",
  "conditions": "both partners purified",
  "data": [
    {"binder": "17T2 Fab fragment (Fab, V domains shown, also called Fab 17T2) VH: QVQLVQSGPEVKKPGTSVKVSCKAPVFTFSISAVQWVRQARGQRLEWIGWIVVGSGNTNYAQNFQERVTITTDMSTGTVYMELSGLRSEDTAMYYCAAPYCNRTTCYDGFDLWGQGTMVTVSS VL: EIVLTQSPGTLSLSPGERATLSCRASQSISSNYLAWYQQKPGQAPRLLIYGASSRATGIPDRFSGSGSGTDFTLSINRLEPEDFAMYYCQHYGGLSRWTFGQGTKVEIK", "values": [
      {"measurement": "stoichiometry N", "value": 3, "unit": "Fab per spike trimer"}
    ]}
  ]
}
